Positions count from the first letter of the chain named.

Broadly, the Kd is the concentration at which binding is half-saturated. What is called EC50 is the concentration at which the effect is half-maximal. The EC50 (read off the curve) is the concentration at which the effect is half-maximal.

Assay [1] concerns the target T1, human CD40 on cells (CD40-transfected HEK293 cells, Ramos cells, human B cells, human platelets) (human, UniProt P25942 21-277). The assay is described as follows: cell-based or functional assay.
The target in a further assay is T2, human CD40-Fc protein (human, UniProt P25942 21-193).
T2 construct: also called recombinant CD40 protein; not shown: Fc part
T2 sequence (P25942 21-193 limits assumed): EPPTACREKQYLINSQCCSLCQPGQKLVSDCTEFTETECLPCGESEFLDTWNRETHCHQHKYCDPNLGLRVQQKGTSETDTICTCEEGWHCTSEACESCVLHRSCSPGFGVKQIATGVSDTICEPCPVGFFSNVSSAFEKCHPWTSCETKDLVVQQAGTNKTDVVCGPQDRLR
The assay is described as follows: ForteBio Octet, human CD40-Fc, +/- human serum. Here is the method: Due to antibody and CD40-Fc bivalency avidity effects prevent Kds below 100 pM from being determined accurately. In addition, the binding to CD40-Fc was analyzed in the absence and presence of 50% human serum and no significant effect of serum on binding was observed (data not shown)
For orientation: In BLI a coated tip is dipped into the sample, and binding shifts an interference pattern.

The target of assay [2] is T1, human CD40 on cells (CD40-transfected …). The assay is described as follows: flow cytometry, human CD40-transfected HEK293 cells. Here is the method:
(§1) The specific binding of humanized antibodies to cellular CD40 was analyzed by flow cytometry using human CD40-transfected HEK293 cells. Concentration-dependent binding of Antibody A, Antibody B, and Antibody C was observed. […] No binding was detected on CD40 negative cells such as non-transfected HEK293 cells or the T cell line HSB-2 thus confirming selective binding to CD40 (data not shown).
(A flow cytometer gives signals particle by particle.)

Assay [3] has the same target. The assay is described as follows: flow cytometry (MFI) on CD40-transfected HEK cells. Here is the method:
as §1

The target is the same in assay [4]. Put plainly: cell binding, flow cytometry (cell type not given).
In assay [5] the target is T3, cynomolgus monkey CD40 on cells (B cells, platelets) (cynomolgus monkey, UniProt G7PG38 21-278).
T3 construct: whole, on cells
Put plainly: EC50 ratio human/cyno; ratio > 1 means increased binding to Cyno compared to Human.

For assay [6], the target named is T1, human CD40 on cells (CD40-transfected …). Put plainly: cell-based or functional assay. The source holds these as a separate data set.
Assay [7] has the same target. The assay is described as follows: flow cytometry (MFI) on human CD40-transfected HEK-293 cells. Here is the method:
as §1

The target is the same in assay [8]. The assay is described as follows: flow cytometry, directly labeled antibody, B cells in human whole blood (n = 6); range in brackets.
Assay [9] shares this target. Put plainly: flow cytometry, directly labeled antibody, platelets in human whole blood (n = 5); range in brackets.
The target in assay [10] is T3, cynomolgus monkey CD40 on cells (B …). Put plainly: flow cytometry, directly labeled antibody, B cells in cynomolgus whole blood (n = 5); range in brackets.
The target is the same in assay [11]. Put plainly: flow cytometry, directly labeled antibody, platelets in cynomolgus whole blood (n = 5); range in brackets.
The target in assay [12] is T1, human CD40 on cells (CD40-transfected …). The assay is described as follows: flow cytometry (mean fluorescence intensity), FITC-labeled antibody on human platelets.

T1 sequence (P25942 21-277): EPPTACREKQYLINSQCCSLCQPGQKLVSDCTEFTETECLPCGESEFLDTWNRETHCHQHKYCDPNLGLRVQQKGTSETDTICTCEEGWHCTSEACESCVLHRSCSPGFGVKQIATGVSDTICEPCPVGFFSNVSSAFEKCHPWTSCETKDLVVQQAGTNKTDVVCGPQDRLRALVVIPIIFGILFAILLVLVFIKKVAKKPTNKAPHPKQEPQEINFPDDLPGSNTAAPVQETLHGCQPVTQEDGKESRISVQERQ

B1: Antibody C (IgG1KO) (antibody, V domains shown)
VH: QVQLVQSGAEVKKPGASVKVSCTASGFNIKDYYVHWVKQAPGQGLEWMGRIDPEDGDSKYAPKFQGKATMTADTSTSTVYMELSSLRSEDTAVYYCTTSYYVGTYGYWGQGTLVTVSS
VL: DIQMTQSPSSLSASVGDRVTITCSASSSVSYMLWFQQKPGKAPKLLIYSTSNLASGVPSRFSGSGSGTDFTLTISSLQPEDFATYYCQQRTFYPYTFGGGTKVEIKR
notes: also called 2H11-159-94
Turning to B1, in [1], the “B cell proliferation:Agonism (SI*)” value is < 2 SI (Stimulation Index). This molecule yielded an equilibrium dissociation constant (Kd) in the assay with human CD40-Fc protein below 0.1 nM. The 50% effective concentration (EC50) in assay [2] was around 1 nM; in [4], 1.7 nM. Moreover, the concentration for a half-maximal effect (EC50 (read off the curve)) in assay [3] was around 0.8 nM. Further, the “Species cross-react.:Hu/Cyno Binding (EC50 ratios)” value in [5] was determined as 1 ratio.

B2: 4D11 (Kirin/Astellas) anti-CD40 antibody (antibody, V domains shown)
VH: QLQLQESGPGLLKPSETLSLTCTVSGGSISSPGYYGGWIRQPPGKGLEWIGSIYKSGSTYHNPSLKSRVTISVDTSKNQFSLKLSSVTAADTAVYYCTRPVVRYFGWFDPWGQGTLVTVSS
VL: AIQLTQSPSSLSASVGDRVTITCRASQGISSALAWYQQKPGKAPKLLIYDASNLESGVPSRFSGSGSGTDFTLTISSLQPEDFATYYCQQFNSYPTFGQGTKVEIK
As for B2, in assay [6], the “B cell proliferation assay, average IC50” value was around 0.02 nM. Also, the “B cell proliferation:Agonism (SI*)” value in assay [1] was < 2 SI (Stimulation Index). The dissociation constant Kd in the assay with human CD40-Fc protein was below 0.1 nM. For the same molecule, the 50% effective concentration (EC50) in assay [2] was around 1 nM; in [4] it was 0.9 nM.

B3: Antibody A (IgG1KO) (antibody, V domains shown)
VH: EVQLVESGGGLVKPGGSLRLSCAASGFTFSDYGMHWVRQAPGKGLEWVAYISSGNRIIYYADTVKGRFTISRDNAKNSLYLQMNSLRAEDTALYYCARQDGYRYAMDYWAQGTLVTVSS
VL: DIVMTQSPDSLAVSLGERATMSCKSSQSLLNSGNQKNYLTWHQQKPGQPPKLLIYWTSTRESGVPDRFSGSGSGTDFTLTISSLQAEDVAVYYCQNDYTYPLTFGGGTKVEIKR
notes: also called 20E2-12
Take B3: the “B cell proliferation:Agonism (SI*)” value in [1] is < 2 SI (Stimulation Index). In the assay with human CD40-Fc protein, this molecule gave an equilibrium dissociation constant (Kd) below 0.1 nM. Besides, the half-maximal effective concentration (EC50) was around 1 nM in assay [2] and 1.2 nM in [4]. For the same molecule, the “EC50 (read off the curve)” value in [3] is around 1 nM. In addition, the “Species cross-react.:Hu/Cyno Binding (EC50 ratios)” value in assay [5] came to 3 ratio.

B4: Antibody B (IgG1KO) (antibody, V domains shown)
VH: B3 VH with L93V, A110G
VL: B3 VL with R18K, A19V, M21I, S22N
With B4, in [1], the “B cell proliferation:Agonism (SI*)” value is < 2 SI (Stimulation Index). Further, the dissociation constant (Kd) with human CD40-Fc protein is below 0.1 nM. Further, the concentration for a half-maximal effect (EC50) in [2] is around 1 nM; in assay [4] it was 1.5 nM; in assay [7] it was 1 nM; in assay [8] it was 1.8 nM; in assay [9], 4.6 nM; in [10], 2.1 nM. Besides, a half-maximal response in assay [11] (EC50) required 3.9 nM. The half-maximal effective concentration (EC50 (read off the curve)) in assay [3] is around 2 nM. In [5], the “Species cross-react.:Hu/Cyno Binding (EC50 ratios)” value was determined as 2 ratio.

B5: 2H11 (murine anti-human CD40 antibody) (antibody, V domains shown)
VH: EVQLQQSGAELVRPGASVKLSCTASGFNIKDYYVHWVKQRPEKGLEWIGRIDPEDGDSKYAPKFQGKATMTADTSSNTAYLHLSSLTSEDTAVYYCTTSYYVGTYGYWGQGTTLTVSS
VL: QIVLTQSPAIMSASPGEKVTITCSASSSVSYMLWFQQKPGTSPKLWIYSTSNLASGVPARFGGSGSGTSYSLTISRMEAEDAATYYCQQRTFYPYTFGGGTKLEIK
notes: Mouse monoclonal antibody
With B5, in [12], the binding result was “binds”.

These data come from patent US20190169301A1 (Boehringer Ingelheim, published 2019).
